Columns and labels:
human IL-2Rβ [1] = molecular target: T1, human IL-2Rβ (human, UniProt P14784 27-240, limits assumed); assay: SPR, kinetic fit
T1 construct: also called hIL-2Rβ; IL-2 receptor beta
T1 sequence (looked up): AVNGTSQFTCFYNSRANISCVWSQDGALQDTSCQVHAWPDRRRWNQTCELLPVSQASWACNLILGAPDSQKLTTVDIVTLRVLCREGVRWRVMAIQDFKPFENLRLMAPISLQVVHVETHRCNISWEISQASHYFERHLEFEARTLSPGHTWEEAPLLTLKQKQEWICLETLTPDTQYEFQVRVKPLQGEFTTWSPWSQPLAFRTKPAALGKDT

human IL-15Rα [2] = molecular target: T2, human IL-15Rα (human, UniProt Q13261 31-205, limits assumed); assay: SPR, steady state
T2 construct: also called hIL-15Rα; IL-15 receptor alpha

human IL-15Rα [3] = molecular target: T2, human IL-15Rα; assay: SPR 37C, fusion captured by anti-human Fc
Experimental: (§1) Anti-human Fc sensor chips were prepared at 25° C. with a running buffer of 10 mM HEPES, 150 mM NaCl, 0.05% (v/v) Tween-20, pH 7.4. All surfaces of a Biacore CM4 sensor chip were activated with a 1:1 (v/v) mixture of 400 mM EDC and 100 mM NHS for 7 minutes, at a flow rate of 10 μL/min. An anti-human Fc reagent (Goat anti-human IgG Fc-γ specific, SouthernBiotech, Birmingham, Ala., Catalog #2014-01) was diluted to 50 μg/mL in 10 mM sodium acetate (pH 4.5) and injected on all flow cells for 7 minutes at 20 μL/min. All flow cells were blocked with 100 mM ethylenediamine in 200 mM Borate buffer pH 8.5 for 7 minutes at 10 μL/min.
(§2) All protein interaction experiments were performed at 37° C. using a running buffer of 10 mM HEPES, 150 mM NaCl, 0.05% (v/v) Tween-20, pH 7.4, 1 mg/mL BSA. Anti-PD-1-hIL-15 fusion proteins were captured at 10 μg/mL at a flow rate of 10 μL/min for 2 minutes. Different fusion proteins were captured in flow cells 2, 3 and 4. No protein was captured onto flow cell 1 which was used as a reference surface. […] After each analyte injection, dissociation was monitored for 5 minutes followed by regeneration of all flow cells with three 60-second injections of 75 mM phosphoric acid. […] For kinetic analysis, the double-referenced sensorgrams were fit globally to a simple 1:1 Langmuir with mass transport binding model using Biacore T200 Evaluation Software version 2.0. For steady-state affinity analysis, the double-referenced equilibrium binding responses were fit with a 1:1 Langmuir steady-state model using Biacore T200 Evaluation Software version 2.0.

human IL-2Rβ [4] = molecular target: T1, human IL-2Rβ; assay: SPR, steady state, fusion captured
Experimental: as §1, §2

human IL-2Rβ [5] = molecular target: T1, human IL-2Rβ; assay: SPR, fusion captured
Experimental: as §1, §2

T2 sequence (Q13261 31-205 limits assumed): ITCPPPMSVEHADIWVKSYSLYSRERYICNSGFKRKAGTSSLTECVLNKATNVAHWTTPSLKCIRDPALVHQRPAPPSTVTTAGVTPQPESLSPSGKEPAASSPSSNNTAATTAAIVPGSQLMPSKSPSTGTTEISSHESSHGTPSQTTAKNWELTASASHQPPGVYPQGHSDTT

Row | Binder | Kd (human IL-2Rβ [1]) [nM] | binding result (human IL-15Rα [3]) | further results
1 | hIL-15 V49R/D30G (ligand) NWVNVISDLKKIEDLIQSMHIDATLYTESGVHPSCKVTAMKCFLLELQRISLESGDASIHDTVENLIILANNSLSSNGNVTESGCKECEELEEKNIKEFLQSFVHIVQMFINTGGGGSGHHHHHHHHGGGLNDIFEAQKIEWHE | 513 | – | –
2 | hIL-15 V49R/N1R (ligand) RWVNVISDLKKIEDLIQSMHIDATLYTESDVHPSCKVTAMKCFLLELQRISLESGDASIHDTVENLIILANNSLSSNGNVTESGCKECEELEEKNIKEFLQSFVHIVQMFINTGGGGSGHHHHHHHHGGGLNDIFEAQKIEWHE | 479 | – | Kd (human IL-15Rα [2]): 243 nM
3 | hIL-15 V49R/N4Y (ligand) NWVYVISDLKKIEDLIQSMHIDATLYTESDVHPSCKVTAMKCFLLELQRISLESGDASIHDTVENLIILANNSLSSNGNVTESGCKECEELEEKNIKEFLQSFVHIVQMFINTGGGGSGHHHHHHHHGGGLNDIFEAQKIEWHE | 117 | – | –
4 | hIL-15 V49R/K11W (ligand) NWVNVISDLKWIEDLIQSMHIDATLYTESDVHPSCKVTAMKCFLLELQRISLESGDASIHDTVENLIILANNSLSSNGNVTESGCKECEELEEKNIKEFLQSFVHIVQMFINTGGGGSGHHHHHHHHGGGLNDIFEAQKIEWHE | 346 | – | Kd (human IL-15Rα [2]): 361 nM
5 | hIL-15 V49R/H32F (ligand) NWVNVISDLKKIEDLIQSMHIDATLYTESDVFPSCKVTAMKCFLLELQRISLESGDASIHDTVENLIILANNSLSSNGNVTESGCKECEELEEKNIKEFLQSFVHIVQMFINTGGGGSGHHHHHHHHGGGLNDIFEAQKIEWHE | 315 | – | –
6 | xmPD-1-hIL15Rasu-hIL15(E64Q/D30N N4K) (other, not restated for this mutant) heavy 1: HHHHHHHHGGGGSGSGGEVQLVESGGGLVKPGGSLELSCAASGFTFSSYWMSWVRQAPEKGLEWVAAISPSGGSTYYADSVKGRFTISRDNAKNTLFLQMTSLRSEDTAMYYCAKESWGAYYDLWGQGTTVTVSSASTKGPSVFPLAPCSRSTSESTAALGCLVKDYFPEPVTVSWNSGALTSGVHTFPAVLQSSGLYSLSSVVTVPSSNFGTQTYTCNVDHKPSNTKVDKTVERKCRVRCPRCPAPPVAGPSVFLFPPKPKDTLMISRTPEVTCVVVAVSHEDPEVQFNWYVDGVEVHNAKTKPREEQFNSTFRVVSVLTVVHQDWLNGKEYKCKVSNKGLPSSIEKTISKTKGQPREPQVYTLPPSREEMTKNQVSLTCLVKGFYPSDIAVEWESNGQPENNYKTTPPMLDSDGSFFLYSRLTVDKSRWQQGNVFSCSVMHEALHNHYTQKSLSLSPGK heavy 2: EVQLVESGGGLVKPGGSLELSCAASGFTFSSYWMSWVRQAPEKGLEWVAAISPSGGSTYYADSVKGRFTISRDNAKNTLFLQMTSLRSEDTAMYYCAKESWGAYYDLWGQGTTVTVSSASTKGPSVFPLAPCSRSTSESTAALGCLVKDYFPEPVTVSWNSGALTSGVHTFPAVLQSSGLYSLSSVVTVPSSNFGTQTYTCNVDHKPSNTKVDKTVERKCEVECPECPAPPVAGPSVFLFPPKPKDTLMISRTPEVTCVVVAVSHEDPEVQFNWYVDGVEVHNAKTKPREEQFNSTFRVVSVLTVVHQDWLNGKEYKCKVSNKGLPSSIEKTISKTKGQPREPQVYTLPPSREEMTKNQVSLTCEVKGFYPSDIAVEWESNGQPENNYKTTPPMLDSDGSFFLYSKLTVDKSRWQQGNVFSCSVMHEALHNHYTQKSLSLSPGSGGGGGTSATATPGAITCPPPMSVEHADIWVKSYSLYSRERYICNSGFKRKAGTSSLTECVLNKATNVAHWTTPSLKCIRDPALVHQRPAPPSGGSGGGGSGGGSGGGGSGGNWVKVISDLKKIEDLIQSMHIDATLYTESNVHPSCKVTAMKCFLLELQVISLESGDASIHDTVQNLIILANNSLSSNGNVTESGCKECEELEEKNIKEFLQSFVHIVQMFINT light: DIVMTQSPSSLSVSAGDKVTMSCRASQGISSWLAWYQQKPWQPPKLLIYKASTLESGVPDRFTGSGSGTDFTLTISSVQAEDLAVYYCQQSYSTPWTFGGGTKLEIKGTVAAPSVFIFPPSDEQLKSGTASVVCLLNNFYPREAKVQWKVDNALQSGNSQESVTEQDSKDSTYSLSSTLTLSKADYEKHKVYACEVTHQGLSSPVTKSFNRGEC | – | no binding (tested: 3000 nM) | Kd (human IL-2Rβ [4]): 767 nM
7 | xmPD-1-hIL15Rasu-hIL15(E64Q/D30N/M109A) (other, not restated for this mutant) heavy 1: HHHHHHHHGGGGSGSGGEVQLVESGGGLVKPGGSLELSCAASGFTFSSYWMSWVRQAPEKGLEWVAAISPSGGSTYYADSVKGRFTISRDNAKNTLFLQMTSLRSEDTAMYYCAKESWGAYYDLWGQGTTVTVSSASTKGPSVFPLAPCSRSTSESTAALGCLVKDYFPEPVTVSWNSGALTSGVHTFPAVLQSSGLYSLSSVVTVPSSNFGTQTYTCNVDHKPSNTKVDKTVERKCRVRCPRCPAPPVAGPSVFLFPPKPKDTLMISRTPEVTCVVVAVSHEDPEVQFNWYVDGVEVHNAKTKPREEQFNSTFRVVSVLTVVHQDWLNGKEYKCKVSNKGLPSSIEKTISKTKGQPREPQVYTLPPSREEMTKNQVSLTCLVKGFYPSDIAVEWESNGQPENNYKTTPPMLDSDGSFFLYSRLTVDKSRWQQGNVFSCSVMHEALHNHYTQKSLSLSPGK heavy 2: EVQLVESGGGLVKPGGSLELSCAASGFTFSSYWMSWVRQAPEKGLEWVAAISPSGGSTYYADSVKGRFTISRDNAKNTLFLQMTSLRSEDTAMYYCAKESWGAYYDLWGQGTTVTVSSASTKGPSVFPLAPCSRSTSESTAALGCLVKDYFPEPVTVSWNSGALTSGVHTFPAVLQSSGLYSLSSVVTVPSSNFGTQTYTCNVDHKPSNTKVDKTVERKCEVECPECPAPPVAGPSVFLFPPKPKDTLMISRTPEVTCVVVAVSHEDPEVQFNWYVDGVEVHNAKTKPREEQFNSTFRVVSVLTVVHQDWLNGKEYKCKVSNKGLPSSIEKTISKTKGQPREPQVYTLPPSREEMTKNQVSLTCEVKGFYPSDIAVEWESNGQPENNYKTTPPMLDSDGSFFLYSKLTVDKSRWQQGNVFSCSVMHEALHNHYTQKSLSLSPGSGGGGGTSATATPGAITCPPPMSVEHADIWVKSYSLYSRERYICNSGFKRKAGTSSLTECVLNKATNVAHWTTPSLKCIRDPALVHQRPAPPSGGSGGGGSGGGSGGGGSGGNWVNVISDLKKIEDLIQSMHIDATLYTESNVHPSCKVTAMKCFLLELQVISLESGDASIHDTVQNLIILANNSLSSNGNVTESGCKECEELEEKNIKEFLQSFVHIVQAFINT light: DIVMTQSPSSLSVSAGDKVTMSCRASQGISSWLAWYQQKPWQPPKLLIYKASTLESGVPDRFTGSGSGTDFTLTISSVQAEDLAVYYCQQSYSTPWTFGGGTKLEIKGTVAAPSVFIFPPSDEQLKSGTASVVCLLNNFYPREAKVQWKVDNALQSGNSQESVTEQDSKDSTYSLSSTLTLSKADYEKHKVYACEVTHQGLSSPVTKSFNRGEC | – | no binding (tested: 3000 nM) | Kd (human IL-2Rβ [4]): 315 nM
8 | xmPD-1-hIL15Rasu-hIL15(E64Q/D30N/N4K/M109A) (other, not restated for this mutant) heavy 1: HHHHHHHHGGGGSGSGGEVQLVESGGGLVKPGGSLELSCAASGFTFSSYWMSWVRQAPEKGLEWVAAISPSGGSTYYADSVKGRFTISRDNAKNTLFLQMTSLRSEDTAMYYCAKESWGAYYDLWGQGTTVTVSSASTKGPSVFPLAPCSRSTSESTAALGCLVKDYFPEPVTVSWNSGALTSGVHTFPAVLQSSGLYSLSSVVTVPSSNFGTQTYTCNVDHKPSNTKVDKTVERKCRVRCPRCPAPPVAGPSVFLFPPKPKDTLMISRTPEVTCVVVAVSHEDPEVQFNWYVDGVEVHNAKTKPREEQFNSTFRVVSVLTVVHQDWLNGKEYKCKVSNKGLPSSIEKTISKTKGQPREPQVYTLPPSREEMTKNQVSLTCLVKGFYPSDIAVEWESNGQPENNYKTTPPMLDSDGSFFLYSRLTVDKSRWQQGNVFSCSVMHEALHNHYTQKSLSLSPGK heavy 2: EVQLVESGGGLVKPGGSLELSCAASGFTFSSYWMSWVRQAPEKGLEWVAAISPSGGSTYYADSVKGRFTISRDNAKNTLFLQMTSLRSEDTAMYYCAKESWGAYYDLWGQGTTVTVSSASTKGPSVFPLAPCSRSTSESTAALGCLVKDYFPEPVTVSWNSGALTSGVHTFPAVLQSSGLYSLSSVVTVPSSNFGTQTYTCNVDHKPSNTKVDKTVERKCEVECPECPAPPVAGPSVFLFPPKPKDTLMISRTPEVTCVVVAVSHEDPEVQFNWYVDGVEVHNAKTKPREEQFNSTFRVVSVLTVVHQDWLNGKEYKCKVSNKGLPSSIEKTISKTKGQPREPQVYTLPPSREEMTKNQVSLTCEVKGFYPSDIAVEWESNGQPENNYKTTPPMLDSDGSFFLYSKLTVDKSRWQQGNVFSCSVMHEALHNHYTQKSLSLSPGSGGGGGTSATATPGAITCPPPMSVEHADIWVKSYSLYSRERYICNSGFKRKAGTSSLTECVLNKATNVAHWTTPSLKCIRDPALVHQRPAPPSGGSGGGGSGGGSGGGGSGGNWVKVISDLKKIEDLIQSMHIDATLYTESNVHPSCKVTAMKCFLLELQVISLESGDASIHDTVQNLIILANNSLSSNGNVTESGCKECEELEEKNIKEFLQSFVHIVQAFINT light: DIVMTQSPSSLSVSAGDKVTMSCRASQGISSWLAWYQQKPWQPPKLLIYKASTLESGVPDRFTGSGSGTDFTLTISSVQAEDLAVYYCQQSYSTPWTFGGGTKLEIKGTVAAPSVFIFPPSDEQLKSGTASVVCLLNNFYPREAKVQWKVDNALQSGNSQESVTEQDSKDSTYSLSSTLTLSKADYEKHKVYACEVTHQGLSSPVTKSFNRGEC | – | no binding (tested: 3000 nM) | Kd (human IL-2Rβ [5]): > 3000 nM

— patent US20210324028A1 (Pfizer, published 2021)
